Reference: article PMC4283936

What was measured:
PhoP [1] = biological target: T1, PhoP (Mycobacterium tuberculosis, UniProt P71814 1-247); test: ITC
PhoP [2] = biological target: T1, PhoP; test: ITC; remark: listed apart in the source
PhoP [3] = biological target: T1, PhoP; test: ITC; remark: listed apart in the source
PhoP [4] = biological target: T1, PhoP; test: competition
His-PhoP = His-PhoP (Mycobacterium tuberculosis, UniProt P71814 1-247); test: SELEX

B1: RD6m23 (dsDNA)
DNA 1: AGTACCTCACAGCAATTTCACAGCTTTCAT
DNA 2: ATGAAAGCTGTGAAATTGCTGTGAGGTACT
binding result (PhoP [1]): binds

B2: fadD9 (dsDNA)
DNA 1: CATCTCACAGCCGATCAGCAGCAGGCTT
DNA 2: AAGCCTGCTGCTGATCGGCTGTGAGATG
Kd (PhoP [2]): 82 ± 4 nM

B3: RD6m1 (dsDNA)
DNA 1: AGTACCGGCGCTGACTTTCACAGCTTTCAT
DNA 2: ATGAAAGCTGTGAAAGTCAGCGCCGGTACT
binding signal (PhoP [3]): ~40 fold lower affinity than RD6

B4: WB6 D5 (dsDNA)
DNA 1: AGATACACAGCTGATTAACAGGATCTA
DNA 2: TAGATCCTGTTAATCAGCTGTGTATCT
binding result (PhoP [4]): binds

B5: Rv3134c (dsDNA)
DNA 1: GCCATTTCTGGGACTTTGCTGTGAAAAGCTG
DNA 2: CAGCTTTTCACAGCAAAGTCCCAGAAATGGC
Kd (PhoP [2]): 61.7 ± 5.3 nM

B6: RD25 (dominant SELEX sequence) (dsDNA)
DNA 1: CTGGAGCATATGGTCCAGTTAGTACCTCACAGCACTTTCAGAGCTTTCATATGCCTGCACC
DNA 2: GGTGCAGGCATATGAAAGCTCTGAAAGTGCTGTGAGGTACTAACTGGACCATATGCTCCAG
binding result (His-PhoP): binds

B7: espA -246 (dsDNA)
DNA 1: CTTGGGATCGCGCCGCCTACACGGCGGTTGGC
DNA 2: GCCAACCGCCGTGTAGGCGGCGCGATCCCAAG
binding result (PhoP [2]): no binding

B8: WB6 D1 (dsDNA)
DNA 1: ATACACAGCTGATTAACAGGATCTATGCC
DNA 2: GGCATAGATCCTGTTAATCAGCTGTGTAT
binding result (PhoP [4]): binds
